Source: the RNAGym collection of RNA variant scans (doi:10.1073/pnas.2313332121)

B1: TPR t1 (parent)
chain: GACCAAUCUGCCCUCAGAGCUCGAGAACAUCUUCGGAUGCAGAGGAGGCAGGCUUCGGUGGCGCGAUAGCGCCAACGUCCUCAACCUCCAAUGCAUCCCACCACAUGAUGAUGCCUGAAGAGCCUUGGUUUUUUG

Variants of: B1
Assay: polymerase ribozyme fitness, log enrichment relative to wild type (log ratio); higher = more active; in vitro selection for triplet polymerase activity
Method in brief: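 Streptavidin-bead capture of gel-excised extended constructs, followed by RT-PCR, closed a single triplicate in vitro selection round. That round began by annealing PCR-built, transcribed mutant libraries of each subunit of a heterodimeric triplet polymerase ribozyme with a biotinylated primer, the partner subunit and triplets, then incubating them frozen at −7 °C. After Illumina sequencing of inputs and outputs, genotypes needed ≥10 input reads and ≥1 read per output. Fitness is the base-2 logarithm of genotype enrichment over wild-type enrichment, using inverse-variance-weighted replicate averages.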

Variant | polymerase ribozyme fitness (log ratio)
C11G G17A G60A C79G A90U C99A | -7.47
C11A C53G C64U C97U C101G G135C | -3.13
C11A U132C | -1.49
C11G A16C A37C G60U C89G C114G | -6.69
C11A G69A C86U | -3.51
C11A G113C | -2.93
C11U C73G C102A A103U | -5.8
C11G G107C U112C C123U G128C | -5.88
C11U C76U | -0.741
C11U C76A | -0.763
C11A A18U | -3
C11A A18C | -3.94
C11A G117A | -3.3
C11A G117U | -3.48
C11A G47A C62A | -3.74
G10U G39C | -0.652
C11G C12G | -1.01
C11G A66U U106G | -3.36
C11A C28G G44A C70U A121C | -4.42
C11A A84C C85U U87A C89G C124A | -4.77
G10U G61A | 0.0248
G10U G39U G77C A100C | -2.58
C11A G42U C70U | -3.6
C11A C101G | -3.13

Variant | polymerase ribozyme fitness (log ratio)
C11U C28U G120A C124G | 0.0586
C11U A46C G120A U133G | -0.579
C11G C20U | -0.656
G10U C82G G110A | -1.83
C11G G60A G120A G135A | 1.87
C11A A46U C64A G113U | -6.19
C11A G47A G77A | -2.62
C11A G69A | -4.25
C11A G69U | -0.0927
G10U G93A C99U | -4.71
C11A U126A U129C | -2.33
C11A C22U | -5.15
C11U A16U A26U C62A G120C | -5.1
C11G A84U G122A | 0.157
G10U G47U G110U G117U G122A | -4.52
C11G G63C U96A | -0.969
G10U C70U A83U A90G C115U | -2.59
C11G C70A A95C U112A U132C | -1.46
C11G C73U U96A | -0.543
C11G C15A G19U G69C C98A C114U | -6.19
G10U G17U G45A C85U C123G | -0.92
C11U C53G C64U C101U U125A | -1.43
C11U A46C | -1.05
G10U C79A | -0.723

Variant | polymerase ribozyme fitness (log ratio)
C11A C73U | -1.2
C11A C115U G122U | -0.883
C11U C64U | -0.331
C11G U14A A46U | -1.11
C11U C20G A27G C56U | -5.19
C11U C73A | -0.524
C11G C34G C49U U106C C115G C124G | -6.56
C11U C15A C40U C73A C123G | -0.889
G10U C101A U125G | -2.32
C11U A46G G69U | -0.0646
C11G G61A | 1
C11G G61C | -1.35
C11U C53A G63C A103C G113U | -6.41
C11A A16U A24U C31G C34G A37C C73A C115U G117C | -7.35
C11G G117C | -1.94
C11G U32C G35C C97U G120C | -2.23
C11G C40A C72U C101U C104U | -1.72
C11G C22G G36A A83C | -3.71
C11G C13G G45A G117A | -1.92
C11G C15U G45A C73A A83U | -1.42
C11G U87G C123G | 1.19
C11G G57A C73A C123G | 0.666
C11A C85U G120U | 0.755
C11A C15U C34G C62G A95U G110U G120A | -7.3

Variant | polymerase ribozyme fitness (log ratio)
C11A G45U A84G C101U G122A | -2.1
C11G C49A C64U | -0.24
C11U A37C G52C C76U | -2.87
C11G A41U G47C U59A A66U | -6.01
C11G G63C A105U C123G | -2.11
C11A C13G U32C A50U G93U U96G U112A U131G | -4.75
C11G C49A U81G G93U C101G U109A | -5.65
C11U C89A U112G | -1.71
C11U A16U G39C G42A C56U | -3.73
C11G A18C C49A C88G U109A | -6.8
C11G C101U | 0.142
C11U C13U | -1.63
G10U U14A | -1.65
C11G A46U G60U A74C A121U | -3.52
C11A G45U | -2.48
C11U C86U | -0.821
C11G C15A | -0.327
C11U C12U C34A G63U U78C C104G G117C | -6.71
C11G A27U C49A G61C A75U A84G | -3.81
C11G C49U C72G | -0.598
C11U C22G C40U | -3.22
C11A C12A C62U C102A C115U U130G | -8.31
C11A A18C A43C C53U | -4.45
C11U A41C C49G U59A G61U A91C U130G | -3.24

Variant | polymerase ribozyme fitness (log ratio)
C11A U109A | -6.59
C11G C34A G61U C62U C80G C86U G120A | -6.66
C11U C56U | -0.0444
C11A U21G G120U C123A | -0.701
C11U C94A C102A | -3.51
C11U C22U C70U C99U U112A | -6.17
C11U C15A G45U C72A U129A | -5.41
C11G C114A | -1.06
C11G A46U C56U C70A C85A C104U | -6.28
C11A C89U G135U | -2.46
C11G U14A A46U G61A C62U | -2.33
C11A U21G A41G A121U | -0.0986
C11A C56A | -1.49
C11A C15U G48U A90G U112A | -2.88
C11G C73G C101U U112C G117C | -3.04
C11A A111C | -1.42
C11A G48A C62U G128C | -3
C11A C70U C76A | -3.78
C11G U112A | 1.42
C11U C12G | -0.553
C11U C12U | -0.628
C11G C76A U112A G117C G128C U134G | -5.47
C11U C70U C102U | -3.34
C11G C94U | -0.128

Variant | polymerase ribozyme fitness (log ratio)
C11G C73U C114U | -1.42
C11G A29C U55G A84G G113A | -4.47
C11A A27C | -5.15
G10U G35C | -5.02
C11A C99A C123A | -5.29
C11U C62U | -0.515
C11A G71A G77A C82G | -3.86
C11A G69U C70U | -2.77
C11G G25C G39A C56A U67G C72A C82A A111C | -6.95
C11A A46U | -2.08
C11A U59A | -1.59
C11G G63U | -0.927
C11A U32C A37C | -1.07
C11A G71C G113A | -2.46
G10U G47C C64U | -1.28
C11G G42A A121C | 0.0348
C11G U38G C79U | -1.02
G10U G44C G61C | -3.37
C11G C13U A84U A91U G93C | -2.67
C11A C72U A75G U129A | -3.18
C11G G39U C49G C64U G117C | -4.26
C11G C31A | -4.96
C11G C64U C72A C89U | -1.01
C11A G51U C85U G120C | -3.38

Variant | polymerase ribozyme fitness (log ratio)
C11G C20U C22A G39C | -5.35
C11A G52C A74C A111C | -1.71
C11A G57U | -1.56
G10U G52U C73G | -0.827
C11U A74G C89G | -3.01
C11G G113A A119U G120A | -0.282
C11G G61U U87G | 0.243
C11G G61U U96C | -0.274
G10U C62A | -1.53
G10U C62U | -0.108
C11A A27U C34A C72G C97A G120U G127A U129C | -6
C11G A29G A43C C49A A74C C85G G113A G135U | -3.78
C11G C62A U106A | -0.272
C11U C72A | 0.246
C11U C15G G47A C86A A90G G117U G120C | -0.496
G10U U14A C73A A83U | -1.57
C11U A18U C53U C72G C82G U96G C98U C104U U109C | -7.77
C11A A83G C85U G120C | 0.982
C11A G36A G61U G128A | -4.02
C11U C13U U32C | -1.05
C11U C101A | -1.8
C11U C101G | -2.02
C11G C98A | -3.33
